Reference: publication PMC8201801 (Proceedings of the National Academy of Sciences of the …, 2021)

Molecular target: T1, Canine parvovirus (CPV) capsid (Canine parvovirus type 2 (CPV-2), …)
T1 chain: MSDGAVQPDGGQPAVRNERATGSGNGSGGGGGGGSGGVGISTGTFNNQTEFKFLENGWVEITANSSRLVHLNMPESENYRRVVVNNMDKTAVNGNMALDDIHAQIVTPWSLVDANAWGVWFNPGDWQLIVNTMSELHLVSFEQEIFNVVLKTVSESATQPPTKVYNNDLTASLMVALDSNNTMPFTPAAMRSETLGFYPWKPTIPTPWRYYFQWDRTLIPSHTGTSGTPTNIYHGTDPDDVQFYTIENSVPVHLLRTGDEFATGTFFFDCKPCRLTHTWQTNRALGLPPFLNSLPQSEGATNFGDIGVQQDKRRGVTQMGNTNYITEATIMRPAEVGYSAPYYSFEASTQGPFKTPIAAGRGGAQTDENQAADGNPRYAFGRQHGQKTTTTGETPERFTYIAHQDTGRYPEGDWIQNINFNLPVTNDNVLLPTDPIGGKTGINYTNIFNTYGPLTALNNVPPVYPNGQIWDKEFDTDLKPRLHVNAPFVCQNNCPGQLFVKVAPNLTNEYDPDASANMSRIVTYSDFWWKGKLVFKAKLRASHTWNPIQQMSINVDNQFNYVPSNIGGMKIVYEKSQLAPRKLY
Experiment: cryo-EM structure

B1: Fab of MAb 14 (Fab 14) (Fab, V domains shown)
VH: AVHLQGTELVKPGASAGVKLSCKASGYTFTNYDMNWVRQRPEQGLEWIGWIFPGDGSTRYNEKFKGKATLTTDKSSSTAYQLNRLTSEDSAVYFCARRGSHGSYSFAYWGQGTLVTVSG
VL: DIVMTQSHKFMSTSVGDRVSITCKASQDVNTALAWYQQIPGQSPKLLIYSASNRYTGVPDRFTASGSGTDFTFTISSVQAEDLALYYCQQHYTTPWTFGGGTKLEIK
With B1 the “stoichiometry N” value was ~60 Fab per capsid.
